Experimental findings from patent US20240425589A1, “CYTOTOXICITY-INDUCING THERAPEUTIC AGENT FOR USE IN TREATMENT OF CANCER” (CHUGAI SEIYAKU KABUSHIKI KAISHA, priority 2021, published 2024) are described below.

In one series the target is T1, recombinant cyno CD3eg (Macaca fascicularis, UniProt Q95LI5).
T1 sequence (Q95LI5 22-117 limits assumed): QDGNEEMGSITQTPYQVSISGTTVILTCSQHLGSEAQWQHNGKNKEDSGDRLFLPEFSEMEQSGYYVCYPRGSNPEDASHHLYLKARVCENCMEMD
T1 sequence (Q95LI7 23-115 partner limits assumed): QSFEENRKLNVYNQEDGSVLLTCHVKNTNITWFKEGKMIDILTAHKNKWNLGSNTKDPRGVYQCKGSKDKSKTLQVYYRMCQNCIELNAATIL
As to the kind of experiment: Biacore 8K SPR affinity to cyno CD3eg. It is filed as binding, cynomolgus. As to conditions: 25 degree C, pH 7.4. The protocol:
(§1) The binding affinity of the anti-CLDN6/Dual-Fab tri-specific antibody against recombinant human and cyno CD3eg (gamma and epsilon subunits of CD3) at pH 7.4 was determined at 25 degree C. using Biacore 8K instrument (GE Healthcare). The binding affinity of the anti-CLDN6/Dual-Fab tri-specific antibody against recombinant human and cyno CD137 at pH 7.4 was determined at 37 degree C. using Biacore 8K instrument (GE Healthcare). Anti-human Fc (GE Healthcare) antibody was immobilized onto all flow cells of a CM4 sensor chip using amine coupling kit (GE Healthcare). Tested antibody and analytes were prepared in ACES pH 7.4 containing 20 mM ACES, 150 mM NaCl, 0.05% Tween 20, 0.005% NaN3. Anti-CLDN6/Dual-Fab tri-specific antibody was captured onto the sensor surface by anti-human Fc. Antibody capture levels were aimed at 300 resonance unit (RU). Recombinant CD3eg and CD137 were injected at both 500 and 2000 nM, followed by dissociation. Sensor surface was regenerated each cycle with 3M MgCl2. […] Binding affinities were determined by processing and fitting the data to 1:1 binding model using Biacore Insight Evaluation software (GE Healthcare).

A further series has as its system CLDN6-LLC1. The series is described as follows: CLDN6-LLC1 syngenic model, combination with anti-mouse PD-L1 antibody. It counts as in vivo, hCD137 KI/hCD3Tg mice. As to conditions: 17 days after transplantation; CS4135 0.2 mg/kg iv day 6, anti-mouse PD-L1 antibody 10 mg/kg ip days 6, 8, 10, 12, 14, 17. On the procedure: In this test, lung cancer cell line LLC1 forced to express claudin 6 (CLDN6) (CLDN6-LLC1) and hCD137 KI/hCD3Tg mice (described in the aforementioned Example 7) were used. The CLDN6-LLC1 cell line was transplanted subcutaneously to the right flank of the mice, and the mice were divided into groups 6 days after transplantation. Individuals whose tumor volume reached 104 to 140 mm^3 were divided into groups. The vehicle and the CS4135 antibody were administered into the mouse tail vein 6 days after transplantation. PBS containing 0.05% Tween-20 was used as the vehicle. The vehicle and anti-mouse PD-L1 antibody (BioX cell) were administered intraperitoneally to the mice 6, 8, 10, 12, 14, and 17 days after transplantation.
Tumor volume was measured 6, 10, 12, 14, and 17 days after transplantation, and the average tumor volume was indicated for each group. The tumor volume was calculated by the following equation: […]
(§2) Tumor Growth Inhibition (TGI) was calculated by the following equation: […]

In the next series the target is recombinant human CD3eg (Homo sapiens, UniProt P07766+P09693). The series is described as follows: Biacore 8K SPR affinity to human CD3eg. It is filed as binding. As to conditions: 25 degree C, pH 7.4. On the procedure: as §1
Sequence of recombinant human CD3eg (P07766+P09693 fused): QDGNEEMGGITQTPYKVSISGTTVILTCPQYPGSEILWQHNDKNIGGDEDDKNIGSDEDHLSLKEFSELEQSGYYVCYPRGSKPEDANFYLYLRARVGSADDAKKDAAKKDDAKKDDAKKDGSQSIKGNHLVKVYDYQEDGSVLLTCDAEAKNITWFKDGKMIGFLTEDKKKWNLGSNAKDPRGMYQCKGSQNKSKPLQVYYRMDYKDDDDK
Another series deals with SNG-M. As to the kind of experiment: SNG-M xenograft in huNOG mice, combination with carboplatin. It is filed as in vivo. As to conditions: 30 days after transplantation; CS4135 0.5 mg/kg iv day 13, carboplatin 40 mg/kg ip days 13, 16, 20. The protocol: In this test, NOG (huNOG) mice (described in the aforementioned Example 13) transplanted with human uterus cancer cell line SNG-M and human CD34-positive cells were used. The SNG-M cell line was transplanted subcutaneously to the right flank of the mice, and the mice were divided into groups 13 days after transplantation. Individuals whose tumor volume reached 130 to 244 mm^3 were divided into groups. Vehicle 1 and CS4135 were administered into the mouse tail vein 13 days after transplantation. PBS containing 0.05% Tween-20 was used as Vehicle 1. Vehicle 2 and carboplatin (Bristol Myers Squibb Company) were administered intraperitoneally to the mice 13, 16, and 20 days after transplantation. Physiological saline was used as Vehicle 2.
Tumor volume was measured 13, 16, 20, 23, 26, and 30 days after transplantation, and the average tumor volume was indicated for each group.
The tumor volume was calculated by the following equation: […]
as §2

In another series the test system is OV-90. As to the kind of experiment: LDH release cytotoxicity on olaparib-treated OV-90. It is filed as cell-based. As to conditions: OV-90, olaparib 3 μM three days vs DMSO, human PBMC. On the procedure:
The effect of the enhanced induction of CLDN6 expression in BRCA1-deficient ovarian cancer cell line UWB1.289, caused by the PARP inhibitor (olaparib), on the cytotoxic activity of anti-CLDN6/Dual-Fab tri-specific antibody CS4135 was assessed.
BRCA1-deficient ovarian cancer cell line UWB1.289 (ATCC) or BRAC1 wildtype ovarian cancer cell line OV-90 (ATCC) which express human CLDN6 were used as target cells.
Each target cell (3×10^5 cells) were seeded at 5 mL into a 25 cm^2-flask. Two flasks were prepared for each target cell. After culturing overnight, olaparib was added at a final concentration of 3 μM to one of the two flasks. DMSO was added to the other flask. After incubating the flasks for three days, the target cells were recovered, and the cytotoxic activity of the CS4135 antibody was evaluated by […] (LDH) release assay using human PBMC as the effector cell.

The subject of a further series is NIH:OVCAR-3. As to the kind of experiment: OVCAR3 xenograft in huNOG mice, combination with irinotecan hydrochloride. It is filed as in vivo. As to conditions: 60 days after transplantation; CS4135 0.1 mg/kg, irinotecan hydrochloride 25 mg/kg, iv days 39, 46. The protocol:
In this test, NOG(huNOG) mice (described in the aforementioned Example 13) transplanted with ovarian cancer cell line NIH:OVCAR-3 (OVCAR3, ATCC) and human CD34-positive cells were used. The OVCAR3 cell line was transplanted subcutaneously to the right flank of the mice, and the mice were divided into groups 39 days after transplantation. Individuals whose tumor volume reached 160 to 263 mm^3 were divided into groups. Vehicle 1 and CS4135 were administered into the mouse tail vein 39 and 46 days after transplantation. PBS containing 0.05% Tween-20 was used as Vehicle 1. Vehicle 2 and irinotecan hydrochloride (Sawai Pharmaceutical Co., Ltd.) were administered into the mouse tail vein 39 and 46 days after transplantation. Physiological saline was used as Vehicle 2.
Tumor volume was measured 39, 42, 46, 49, 53, 57, and 60 days after transplantation, and the average tumor volume is indicated for each group. The tumor volume was calculated by the following equation: […]
as §2

B1: PPU4135: anti-CLDN6/Dual-Fab tri-specific antibody, chains SEQ ID NOs 42, 51, 56, 69; CS4135 same antibody (protein)
chain 1: QVQLVESGGGVVQPGGSLRLSCAASGFTFSSYTMSWVRQAPGQGLEWMGTISSGGGRTYYPDSVKGRFTISRDNSKNTLYLQMNSLRDEDTAVYYCARGDYRYDGFAYWGEGTLVTVSSASTKGPSVFPLAPSSKSTSGGTAALGCLVEDYFPEPVTVSWNSGALTSGVHTFPAVLESSGLYSLSSVVTVPSSSLGTQTYICNVNHKPSNTKVDKRVEPKSCDKTHTCPPCPAPEAAGGPSVFLFPPKPKDTLMISRTPEVTCVVVDVSHEDPEVKFNWYVDGVEVHNAKTKPREEQYASTYRVVSVLTVLHQDWLNGKEYKCKVSNKALPAPIEKTISKAKGQPREPQVYTLPPSREEMTKNQVSLTCLVKGFYPSDIAVEWESNGQPENNYKTTPPVLDSDGSFFLYSKLTVDKSRWQQGNVFSCSVMHEALHNHYTQESLSLSP
chain 2: DIQMTQSPSSLSASVGDRVTITCRASYNIDSYLAWYQQKPGKAPELLIYYSTLLVDGVPDRFSGSRSGTDFTLTISSLQPEDFATYYCQHYYSIPYTFGQGTKVEIERTVAAPSVFIFPPSDEQLKSGTAKVVCLLNNFYPREAKVQWKVDNALQSGNSKESVTEQDSKDSTYSLSSTLTLSKADYEKHKVYACEVTHQGLSSPVTKSFNRGEC
chain 3: QVQLVESGGGLVQPGRSLRLSCAASGFKFSNVWFHWVRQAPGKGLEWVAQIKDYYNAYAAYYAPSVKGRFTISRDDSKNSIYLQMNSLKTEDTAVYYCHYVHYASASTLLPAEGVDAWGQGTTVTVSSASTKGPSVFPLAPSSKSTSGGTAALGCLVKDYFPEPVTVSWNSGALTSGVHTFPAVLKSSGLYSLSSVVTVPSSSLGTQTYICNVNHKPSNTKVDKRVEPKSCDKTHTCPPCPAPEAAGGPSVFLFPPKPKDTLMISRTPEVTCVVVDVSHEDPEVKFNWYVDGVEVHNAKTKPREEQYASTYRVVSVLTVLHQDWLNGKEYKCKVSNKALPAPIEKTISKAKGQPREPQVYTLPPSRKEMTKNQVSLTCLVKGFYPSDIAVEWESNGQPENNYKTTPPVLDSDGSFFLYSKLTVDKSRWQQGNVFSCSVMHEALHNHYTQKSLSLSP
chain 4: DIVMTQSPLSLPVTPGEPASISCQPSQEVVHMNRNTYLHWYQQKPGQAPRLLIYKVSNRFPGVPDRFSGSGSGTDFTLKISRVEAEDVGVYYCAQGTSHPFTFGQGTKLEIKRTVAAPSVFIFPPSDEQLKSGTAEVVCLLNNFYPREAKVQWKVDNALQSGNSEESVTEQDSKDSTYSLSSTLTLSKADYEKHKVYACEVTHQGLSSPVTKSFNRGEC
For B1, the ka worked out at 101000 M⁻¹ s⁻¹ with recombinant cyno CD3eg and 78000 M⁻¹ s⁻¹ with recombinant human CD3eg. Moreover, the results for the kd with recombinant cyno CD3eg and with recombinant human CD3eg were 0.0332 s⁻¹ and 0.0266 s⁻¹, respectively. In addition, the “Tumor growth inhibition: TGI” value in the series on CLDN6-LLC1 is on record as 71%; with SNG-M, 35%; in the series with NIH:OVCAR-3 it was −2%. The “cytotoxic activity after addition of olaparib” value in the series with OV-90 is “no effect on cytotoxic activity”.
